Results published in PMC4335501.

How the values were obtained:
[1] = target: 52SFK N318A (human adenovirus type 52 (HAdV-52)); experiment: gas-phase electrophoretic mobility molecular analysis (GEMMA); 20 mM ammonium acetate pH 7.8, 0.005% Tween 20; 0.05 mg/ml (52SFK wt, mutants 1-3) or 0.06 mg/ml (mutants 4-6)
[2] = target: Recombinant human CAR (CXADR Fc chimera; full length extracellular D1D2 domain) (human) (UniProt P78310); experiment: SPR; CAR-D1D2 Fc chimera or CAR-D1 amine-coupled to CM5 (900-1100 RU); 52LFK or 52SFK as analytes, two-fold series 8 nM to 2 μM; 25°C; HBS-EP+ (10 mM HEPES, 150 mM NaCl, 3 mM EDTA, 0.005% P20, pH 7.4); Biacore T100
Sequence of Recombinant human CAR (CXADR Fc chimera; full length extracellular D1D2 domain) (human) (P78310 20-237, change not shown): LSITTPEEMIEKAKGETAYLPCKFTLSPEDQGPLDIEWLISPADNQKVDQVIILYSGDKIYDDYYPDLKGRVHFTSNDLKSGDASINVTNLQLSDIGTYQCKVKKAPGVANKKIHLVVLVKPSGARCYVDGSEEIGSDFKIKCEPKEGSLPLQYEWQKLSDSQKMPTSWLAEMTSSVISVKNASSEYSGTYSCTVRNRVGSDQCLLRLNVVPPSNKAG

soluble CAR-D1 = experiment: as above
[3] = target: 52SFK R316E (human adenovirus type 52 (HAdV-52)); experiment: gas-phase electrophoretic mobility molecular analysis (GEMMA); 20 mM ammonium acetate pH 7.8, 0.005% Tween 20; 0.05 mg/ml (52SFK wt, mutants 1-3) or 0.06 mg/ml (mutants 4-6)
[4] = target: 52SFK N308E (human adenovirus type 52 (HAdV-52)); experiment: as above
[5] = target: 52SFK R316E/N318A (human adenovirus type 52 (HAdV-52)); experiment: as above
[6] = target: HAdV-52 virion (strain TB3-2243) (human adenovirus type 52 (HAdV-52)); experiment: radioligand binding; competition: soluble CAR-D1 preincubated with 35S-labelled virions for 1 h on ice before the virions were added to A549 cells; read-out is the cell-bound radioactivity; concentration of CAR-D1 not stated
[7] = target: HAdV-5 virion (Ad75; source ATCC); experiment: as above
[8] = target: 52SFK R316A (human adenovirus type 52 (HAdV-52)); experiment: gas-phase electrophoretic mobility molecular analysis (GEMMA); 20 mM ammonium acetate pH 7.8, 0.005% Tween 20; 0.05 mg/ml (52SFK wt, mutants 1-3) or 0.06 mg/ml (mutants 4-6)
[9] = target: 52SFK R316A/N318A (human adenovirus type 52 (HAdV-52)); experiment: as above
[10] = target: HAdV-52 short fiber knob (human adenovirus type 52 (HAdV-52)); experiment: as above
[11] = target: HAdV-52 short fiber knob (human adenovirus type 52 (HAdV-52)); experiment: crystal structure; 52SFK crystals soaked with 20 mM 2-O-methyl sialic acid; 1.65 Å; threefold NCS

With 52SFK N318A (domain or fragment) the stoichiometry N [1] was 3.
“HAdV-52 long fiber knob (domain or fragment)” was tested, and the Kd [2] was 5 nM and the Kd (soluble CAR-D1) was 2.6 nM.
With 52SFK R316E (domain or fragment) the stoichiometry N [3] was 3.
52SFK N308E (domain or fragment) gave a stoichiometry N [4] of 3.
Work on 52SFK R316E/N318A (domain or fragment) yielded a stoichiometry N [5] of 3.
Work on soluble CAR-D1 (domain or fragment) yielded a percent reduction of virion binding to A549 cells [6] of 20% and a percent reduction of virion binding to A549 cells [7] of 50%.
With 52SFK R316A (domain or fragment) the stoichiometry N [8] was 3.
52SFK R316A/N318A (domain or fragment) showed a stoichiometry N [9] of 3.
Work on “HAdV-52 short fiber knob (domain or fragment)” yielded a stoichiometry N [10] of 3 and a stoichiometry N [11] of 3.
